Source: US20260167699A1 (Chugai, published 2026)

B1: GpH7-A5/GpH7-B3 variant L328_02A/GpL16-k0 (antibody, human IgG1, kappa)
heavy 1: not shown
heavy 2: not shown
light: DIVMTQSPLSLPVTPGEPASISCQASESLVHSNRNTYLHWYLQKPGQSPQLLIYKVSNRFSGVPDRFSGSGSGTDFTLKISRVEAEDVGVYYCSQNTHVPPTFGQGTKVEIERTVAAPSVFIFPPSDEQLKSGTASVVCLLNNFYPREAKVQWKVDNALQSGNSQESVTEQDSKDSTYSLSSTLTLSKADYEKHKVYACEVTHQGLSSPVTKSFNRGEC
notes: He Ab; copies: 1 + 1 + 2
B2: GpH7-A5/GpH7-B3 variant L328_04F/GpL16-k0 (antibody, human IgG1, kappa)
heavy 1: not shown
heavy 2: not shown
light: B1 light
notes: He Ab; copies: 1 + 1 + 2
B3: GpH7-A5/GpH7-B3 variant N325_16H/GpL16-k0 (antibody, human IgG1, kappa)
heavy 1: not shown
heavy 2: not shown
light: B1 light
notes: He Ab; copies: 1 + 1 + 2
B4: GpH7-A5/GpH7-B3 variant N325_13S/GpL16-k0 (antibody, human IgG1, kappa)
heavy 1: not shown
heavy 2: not shown
light: B1 light
notes: He Ab; copies: 1 + 1 + 2
B5: GpH7-A5/GpH7-B3 variant L328_15Y/GpL16-k0 (antibody, human IgG1, kappa)
heavy 1: not shown
heavy 2: not shown
light: B1 light
notes: He Ab; copies: 1 + 1 + 2
B6: GpH7-A5/GpH7-B3 variant P331_13S/GpL16-k0 (antibody, human IgG1, kappa)
heavy 1: not shown
heavy 2: not shown
light: B1 light
notes: He Ab; copies: 1 + 1 + 2
B7: GpH7-A5/GpH7-B3 variant L328_19Q/GpL16-k0 (antibody, human IgG1, kappa)
heavy 1: not shown
heavy 2: not shown
light: B1 light
notes: He Ab; copies: 1 + 1 + 2
B8: GpH7-A5/GpH7-B3 variant P271_04F/GpL16-k0 (antibody, human IgG1, kappa)
heavy 1: not shown
heavy 2: not shown
light: B1 light
notes: He Ab; copies: 1 + 1 + 2
B9: GpH7-A5/GpH7-B3 variant N325_09D/GpL16-k0 (antibody, human IgG1, kappa)
heavy 1: not shown
heavy 2: not shown
light: B1 light
notes: He Ab; copies: 1 + 1 + 2
B10: GpH7-A5/GpH7-B3 variant P238_19Q/GpL16-k0 (antibody, human IgG1, kappa)
heavy 1: not shown
heavy 2: not shown
light: B1 light
notes: He Ab; copies: 1 + 1 + 2
B11: GpH7-A5/GpH7-B3 variant P271_11K/GpL16-k0 (antibody, human IgG1, kappa)
heavy 1: not shown
heavy 2: not shown
light: B1 light
notes: He Ab; copies: 1 + 1 + 2
B12: GpH7-A5/GpH7-B3 variant P329_09D/GpL16-k0 (antibody, human IgG1, kappa)
heavy 1: not shown
heavy 2: not shown
light: B1 light
notes: He Ab; copies: 1 + 1 + 2
B13: GpH7-A5/GpH7-B3 variant P331_20W/GpL16-k0 (antibody, human IgG1, kappa)
heavy 1: not shown
heavy 2: not shown
light: B1 light
notes: He Ab; copies: 1 + 1 + 2
B14: GpH7-A5/GpH7-B3 variant P271_09D/GpL16-k0 (antibody, human IgG1, kappa)
heavy 1: not shown
heavy 2: not shown
light: B1 light
notes: He Ab; copies: 1 + 1 + 2
B15: GpH7-A5/GpH7-B3 variant Q295_03V/GpL16-k0 (antibody, human IgG1, kappa)
heavy 1: not shown
heavy 2: not shown
light: B1 light
notes: He Ab; copies: 1 + 1 + 2
B16: GpH7-A5/GpH7-B3 variant P238_15Y/GpL16-k0 (antibody, human IgG1, kappa)
heavy 1: not shown
heavy 2: not shown
light: B1 light
notes: He Ab; copies: 1 + 1 + 2
B17: GpH7-A5/GpH7-B3 variant P271_19Q/GpL16-k0 (antibody, human IgG1, kappa)
heavy 1: not shown
heavy 2: not shown
light: B1 light
notes: He Ab; copies: 1 + 1 + 2
B18: GpH7-A5/GpH7-B3 variant P271_12R/GpL16-k0 (antibody, human IgG1, kappa)
heavy 1: not shown
heavy 2: not shown
light: B1 light
notes: He Ab; copies: 1 + 1 + 2
B19: GpH7-A5/GpH7-B3 variant P271_14T/GpL16-k0 (antibody, human IgG1, kappa)
heavy 1: not shown
heavy 2: not shown
light: B1 light
notes: He Ab; copies: 1 + 1 + 2
B20: GpH7-A5/GpH7-B3 variant P238_09D/GpL16-k0 (antibody, human IgG1, kappa)
heavy 1: not shown
heavy 2: not shown
light: B1 light
notes: He Ab; copies: 1 + 1 + 2
B21: GpH7-A5/GpH7-B3 variant P238_08L/GpL16-k0 (antibody, human IgG1, kappa)
heavy 1: not shown
heavy 2: not shown
light: B1 light
notes: He Ab; copies: 1 + 1 + 2
B22: GpH7-A5/GpH7-B3 variant P331_08L/GpL16-k0 (antibody, human IgG1, kappa)
heavy 1: not shown
heavy 2: not shown
light: B1 light
notes: He Ab; copies: 1 + 1 + 2
B23: GpH7-A5/GpH7-B3 variant P271_15Y/GpL16-k0 (antibody, human IgG1, kappa)
heavy 1: not shown
heavy 2: not shown
light: B1 light
notes: He Ab; copies: 1 + 1 + 2
B24: GpH7-A5/GpH7-B3 variant P331_11K/GpL16-k0 (antibody, human IgG1, kappa)
heavy 1: not shown
heavy 2: not shown
light: B1 light
notes: He Ab; copies: 1 + 1 + 2
B25: GpH7-A5/GpH7-B3 variant P331_03V/GpL16-k0 (antibody, human IgG1, kappa)
heavy 1: not shown
heavy 2: not shown
light: B1 light
notes: He Ab; copies: 1 + 1 + 2
B26: GpH7-A5/GpH7-B3 variant Q295_05P/GpL16-k0 (antibody, human IgG1, kappa)
heavy 1: not shown
heavy 2: not shown
light: B1 light
notes: He Ab; copies: 1 + 1 + 2
B27: GpH7-A5/GpH7-B3 variant P271_08L/GpL16-k0 (antibody, human IgG1, kappa)
heavy 1: not shown
heavy 2: not shown
light: B1 light
notes: He Ab; copies: 1 + 1 + 2
B28: GpH7-A5/GpH7-B3 variant Q295_01G/GpL16-k0 (antibody, human IgG1, kappa)
heavy 1: not shown
heavy 2: not shown
light: B1 light
notes: He Ab; copies: 1 + 1 + 2
B29: GpH7-A5/GpH7-B3 variant P329_02A/GpL16-k0 (antibody, human IgG1, kappa)
heavy 1: not shown
heavy 2: not shown
light: B1 light
notes: He Ab; copies: 1 + 1 + 2
B30: GpH7-A5/GpH7-B3 variant P331_07I/GpL16-k0 (antibody, human IgG1, kappa)
heavy 1: not shown
heavy 2: not shown
light: B1 light
notes: He Ab; copies: 1 + 1 + 2

Molecular target: T1, FcγRIIIa extracellular domain, C-terminal His tag (human, UniProt P08637 17-208)
T1 construct: extracellular domain; also called 3a
Assay: SPR, binding activity relative to GpH7-A5/GpH7-B3/GpL16-k0 (=100)

T1 sequence (P08637 other isoform, or with tags, fused parts or gaps): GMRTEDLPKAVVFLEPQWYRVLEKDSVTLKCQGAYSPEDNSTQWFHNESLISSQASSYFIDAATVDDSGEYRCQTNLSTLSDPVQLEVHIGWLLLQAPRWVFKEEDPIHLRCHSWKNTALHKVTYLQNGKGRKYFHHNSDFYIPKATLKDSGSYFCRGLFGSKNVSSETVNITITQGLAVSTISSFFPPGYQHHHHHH

Row | Binder | He/Con 3a [%]
1 | B1 | 81.3
2 | B2 | 81.5
3 | B3 | 68
4 | B4 | 71.9
5 | B5 | 70.2
6 | B6 | 80.9
7 | B7 | 83.4
8 | B8 | 65.6
9 | B9 | 53
10 | B10 | 52.7
11 | B11 | 92.5
12 | B12 | 52.5
13 | B13 | 71.9
14 | B14 | 97.7
15 | B15 | 86.2
16 | B16 | 61
17 | B17 | 84.6
18 | B18 | 87.6
19 | B19 | 59.2
20 | B20 | 100
21 | B21 | 71.3
22 | B22 | 66
23 | B23 | 62.7
24 | B24 | 61.8
25 | B25 | 66.9
26 | B26 | 74.4
27 | B27 | 74.5
28 | B28 | 76.6
29 | B29 | 55.2
30 | B30 | 60.4
